# Source: patent publication US12636342B2, “TARS derived from Akkermansia muciniphila or fragment thereof, and use thereof” (KOREA RESEARCH INSTITUTE OF BIOSCIENCE AND BIOTECHNOLOGY, priority 2020, dated 2026)
# B1: Akkermansia muciniphila-derived threonyl-tRNA synthetase (TARS) (protein)
# chain: MSEHKERKTLEERQQMSDLERLRHSCAHVLATAICRLWPDAQLAGGPAVDNGFYYDVELDHRISTEDFERIEEEMKKVVKENQVFQKEVISRADAMKMAESGELGALGPRSEPSRFKIDLLNDIPEDEEISLYRNGDFTDLCAGPHVGRTGNCKAFKIMSVASAFYKGDKNRPMLQRIYGTCFPNRTQLDEHLERLEEARRRDHRKLGRELGLFCIDESVGQGLILWKPKGALIRRSLQDFITEELDKLGYSQVYTPNIGKLDLYRTSGHFPYYQESQYAPIPERDAMEKLSQEGASCAELFNGLATGTIEGYMLKPMNCPHHIKIYANDAHSYRDLPVRLAEFGTVYRWEQSGELGGMTRVRGFTQDDAHIFCTPDQLAGEIRQCLGIVKTIFGTLGMTDYRVRLSMRDPESDKYVGSPENWDKAEQALREAAEWLGADYSEEAGEAAFYGPKIDFIVRDAIGREWQLGTVQVDYNLPERFDLHYTGADNKPHRPVMVHRAPFGSMERFTGLLIEHFEGKFPTWLSPEQVRVLPISDKVTDVAAAHRTALAARGVRVTVDETPDKIGAKIRNARLDRVPYMLVLGQREAEDGTVSVRHRDKGDLGAMPFEQFADLVAREIAERHISPVI
# modifications: Akkermansia muciniphila TARS
# How the values were obtained:
# BMDMs = assay: M2 macrophage polarization in BMDMs (CD206 flow cytometry); assay type: cell-based, mouse
# Method: Since M2 macrophage polarization precedes production of anti-inflammatory cytokines such as IL-10, we assessed the effects of AmTARS on macrophage polarization. BMDMs were treated with PBS (negative control), LPS (to induce M1 polarization), or IL-4/IL-13 (to induce M2 polarization [positive control]) in the absence and presence of AmTARS, and the resulting M2 macrophage population was measured by flow cytometry using an antibody specific for the M2 macrophage surface marker CD206.
# mouse adipocyte 3T3-L1 = assay: Immunoblot of insulin signaling in 3T3-L1 with PMA or TNF-α induced inflammation; assay type: cell-based; settings: 0.5 μM AmTARS
# Method: Next, to determine whether the anti-inflammatory function of AmTARS affected the regulation of metabolic disease-associated intracellular signaling, immunoblot analysis was performed using the mouse adipocyte 3T3-L1.
# Specifically, 3T3-L1 cells were cultured in DMEM containing 10% bovine calf serum (BCS) and antibiotics under conditions of 5% CO2 and 37° C. The cells were treated with 2 μM phorbol 12-myristate 13-acetate (PMA) or 20 ng/ml TNF-α to create an inflammatory environment in the cultured cells. The cells were treated with 100 nM insulin and 0.5 μM AmTARS for 24 h, and then changes in intracellular signaling were investigated.
# [1] = system: TLR2-KO mice with DSS-induced colitis; assay: DSS-induced colitis in TLR2-deficient mice; assay type: in vivo, mouse
# Method: We assessed the role of TLR2 in AmTARS function in vivo. To verify whether the binding between AmTARS and TLR2 actually acted on the anti-inflammatory effect of AmTARS, an inflammatory bowel disease mouse model was prepared from TLR2-deficient mice by way of the same method as in Example 5 and investigated for anti-inflammatory efficacy after the administration of AmTARS. TLR2-KO mice were slightly more susceptible to DSS-induced colitis than WT mice, as reported previously (Rakoff-Nahoum et al., 2004).
# THP1 cells = assay: Immunoblotting of AmTARS/TLR2-induced signaling molecules in THP1 cells; assay type: cell-based, human
# Method: (A and B) Analysis of key molecules that inhibit the MAPK and PI3K/AKT signaling pathways. IL-10 produced by BMDMs pre-treated with inhibitors of ERK (PD98059, […]), p38 (SB203580, […]), MSK1/2 (SB747651A, 10 μM), CREB (666-15, 1 μM), PI3K (Wortmannin, 10 μM), and AKT1/2 (AKT1/2, 10 μM) for 1 h before treatment with either PBS or AmTARS for 24 h (n=6 per group) (A). Flow cytometry analysis of M2 macrophages in BMDMs pre-treated for 1 h with the indicated kinase inhibitors, before treatment with either PBS or AmTARS for 24 h (n=3 per group) (B). (C and D) Western blot analysis of MAPK signaling molecules in lysates of BMDMs (C) or THP1 cells (D) treated for different times with 0.5 μM AmTARS. (E) Western blot analysis of lysates of BMDMs pre-treated with α-IgG (Isotype, 1 μg ml-1) or α-TLR2 (1 μg ml-1) for 1 h before treatment with PBS, AmTARS (0.5 μM), or Pam3 (0.5 μM) for 30 min. (F and G) Western blot analysis of PI3K/AKT signaling molecules in lysates of BMDMs (F) or THP1 cells (G) treated with 0.5 μM AmTARS. (H) AmTARS activates both TLR2/1- and TLR2/6-mediated signaling. Activation of AKT, ERK, and CREB was measured by western blot analysis of lysates of THP1 cells pre-treated with α-IgG, α-TLR1, α-TLR2, or α-TLR6 (1 μg ml-1) for 1 h before treatment for 30 min with PBS or AmTARS (0.5 µM). Data shown in (A and B) are representative of three independent experiments, each with similar results (mean±SEM). P-values were calculated using an unpaired two-tailed Student's t-test. Data shown in (C-H) are representative and repeated at least three times.
# Subsequently, we conducted immunoblotting assays to measure the time-dependent activation of AmTARS/TLR2-induced signaling molecules in both BMDMs and THP1 cells. AmTARS rapidly activated ERK, p38, and MSK1/2 within 15 min and, subsequently, phosphorylation of CREB at Ser133 (which is essential for IL-10 production) within 30 min in BMDMs (FIG. 31C) and THP1 cells (FIG. 31D). We then compared AmTARS-triggered TLR2 signaling with typical ligand-triggered signaling using Pam3CSK4 (the synthetic canonical TLR2/1 agonist, referred to hereafter as Pam3) in BMDMs stimulated for 30 min. […] By contrast, activation of NF-κB was greater in Pam3-treated BMDMs than in AmTARS-treated BMDMs (FIG. 31E).
# macrophages (F4/80+) = assay: Identification of cells targeted by injected AmTARS (flow cytometry of PECs, colon immunofluorescence); assay type: in vivo, mouse; settings: Mac2 immunofluorescence, His-tagged AmTARS 0.2 mg kg-1, 1 day
# Method: To identify the cells targeted by AmTARS, mice with injected i.p. with fluorescently labeled AmTARS, and fluorescence-positive cells in peritoneal exudate cells (PECs), were analyzed by flow cytometry. […] Next, we used a Mac-2 immunofluorescence antibody to test whether i.p.-injected AmTARS targets intestinal macrophages. Intense expression of Mac2 was detected in colonic epithelium, as well as in macrophages located in the lamina propria.
# [2] = Aminoacylation reaction (malachite green phosphate assay); assay type: biochemical; settings: L-threonine, ATP, 30 min, free Pi at 620 nm
# Method: TARS is an […] involved in protein synthesis, and the domain and site involved in its function are well known. The constructed deletion mutants were confirmed to have deletions of parts irrelevant to the function, but the aminoacylation reaction experiment was conducted to determine whether the deletion mutants performed the intrinsic functions thereof appropriately.
# Specifically, a 2× reaction solution (100 mM Tris-HCl (pH 7.5), 20 mM MgCl2, 200 mM NaCl, 200 mM KCl, 2 mM DTT, 500 μM ATP, and 5 mM L-threonine) was prepared, and 25 μL of a reaction solution, 20 μL of distilled water, and 5 μL of protein were added to make a final 50 μL volume, followed by incubation for 30 min. Thereafter, a reaction was conducted using a malachite green phosphate assay kit (Bioassay Systems) for 30 min, and the free monophosphate group (Pi) was measured at a wavelength of 620 nm.
molecule,measurement,setting,value
B1,M2 polarization (CD206+),BMDMs; LPS-treated BMDMs (M1 polarization),significantly re-polarized LPS-induced M1 macrophages to M2 macrophages
same,M2 polarization (CD206+),BMDMs; PBS-treated BMDMs,activated M2 polarization
same,phosphorylation of protein kinase B (AKT),"mouse adipocyte 3T3-L1; 3T3-L1, 100 nM insulin and 2 μM PMA, 24 h",again increased the phosphorylation
same,S6 kinase (S6K),"mouse adipocyte 3T3-L1; 3T3-L1, TNF-α, insulin",phosphorylated and activated
same,glycogen synthase kinase (GSK)-3β,"mouse adipocyte 3T3-L1; 3T3-L1, TNF-α, insulin",phosphorylated and inhibited
same,insulin receptor substrate (IRS),"mouse adipocyte 3T3-L1; 3T3-L1, TNF-α, insulin",no significant change
same,phosphorylation of AKT,"mouse adipocyte 3T3-L1; 3T3-L1, insulin resistance induced by 20 ng/ml TNF-α, 100 nM insulin",increased the phosphorylation
same,colitis-induced body weight loss,[1]; TLR2-KO mice,did not improve
same,disease activity score,[1]; TLR2-KO mice,did not improve
same,B cells in the colon,[1]; TLR2-deficient mice,did not show efficacy of increasing B cells in the colon
same,amount of IgA,[1]; TLR2-deficient mice,a significant change in the amount of IgA could not be observed
same,increase in IL-10-secreting macrophage numbers,[1]; colitis TLR2-KO mice,did not induce
same,reduction in pro-inflammatory monocyte numbers,[1]; colitis TLR2-KO mice,did not induce
same,time to activation of AKT,THP1 cells; 0.5 μM AmTARS,≤ 15 min
same,time to activation of ERK,THP1 cells; 0.5 μM AmTARS,≤ 15 min
same,time to activation of MSK1/2,THP1 cells; 0.5 μM AmTARS,≤ 15 min
same,time to activation of PI3K,THP1 cells; 0.5 μM AmTARS,≤ 15 min
same,time to activation of p38,THP1 cells; 0.5 μM AmTARS,≤ 15 min
same,time to inhibition of GSK3β activity (phosphorylation at Ser9),THP1 cells; 0.5 μM AmTARS,≤ 15 min
same,time to phosphorylation of CREB at Ser133,THP1 cells; 0.5 μM AmTARS,≤ 30 min
same,"AmTARS-induced TLR2 signaling (AKT, ERK, CREB) after antibody pre-treatment","THP1 cells; α-TLR1, α-TLR2 or α-TLR6 1 μg ml-1 1 h, then AmTARS 0.5 μM 30 min","shut down by antibodies targeting TLR1, TLR6, and TLR2"
same,co-localization of administered AmTARS (His) in the colon,macrophages (F4/80+),co-localized mainly with macrophages in the lamina propria
same,aminoacylation reaction / enzymatic activity,[2],an aminoacylation reaction was shown
